Assay [1] concerns the target T1, soluble FZD8-Fc containing the Fri domain (amino acids 1-157 of FZD8 linked in-frame to human IgG1 Fc) (human, UniProt Q9H461 28-157).
T1 construct: also called wild-type FZD8; not shown: human IgG1 Fc
T1 sequence: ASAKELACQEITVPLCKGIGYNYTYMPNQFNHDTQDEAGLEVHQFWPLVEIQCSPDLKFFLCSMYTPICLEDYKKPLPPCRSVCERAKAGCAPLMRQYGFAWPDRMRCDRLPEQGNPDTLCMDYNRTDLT
As to the kind of experiment: phage ELISA on FZD8-Fc. (An ELISA detects its analyte on a solid surface through an enzyme-linked reagent.)

The target in assay [2] is T2, FZD8-Fc variant Mut2 (substitution at position 75 in the cleft) (human, UniProt Q9H461 28-157).
T2 construct: also called FZD8-Mut2; not shown: human IgG1 Fc
T2 chain: T1 sequence with L48S
The assay can be described thus: phage ELISA on FZD8-Fc Mut2.

Assay [3] has as its target T3, human FZD5 expressed on transfected HEK293 cells (human, UniProt Q13467 27-585).
T3 construct: See note of m11
The assay can be described thus: FACS titration (MFI) on HEK293 cells transfected with full-length FZD and GFP. The protocol: (§1) HEK293 cells were co-transfected with a plasmid DNA expressing full-length FZD1, 2, 5, 7 or 8 along with another plasmid expressing the reporter gene GFP used as a transfection marker. Fugene 6 (Roche) was used as transfection reagent according to the manufacturer directions. Transfected cells were incubated twenty-four to forty-eight hours at 37° C. and 5% CO₂. The anti-FZD mAbs were then diluted in a final volume of 50 μl starting with a concentration of 20 μg/ml and serially diluted 4-fold for a total of 8 dilutions. […] The cells were washed and bound anti-Fzd antibodies were detected with a secondary anti-human antibody conjugated to a fluorescent chromophore. Labeled cells were then detected and counted by FACS. The FACS data generated were expressed in Mean Fluorescence Intensity (MFI) units. GraphPad Prism software was used to graph and analyze the data. MFIs were plotted as a function of Ab concentration to establish dose-response curves. A non-linear regression was applied to the numbers to fit the curve and calculate EC50s.
(§2) The binding profiles for the mAbs 18R5 and 44R24 were determined and compared. 44R24 bound Fzd5 and Fzd8 with good affinity.

The target in assay [4] is T4, FZD5-Fc (Homo sapiens (Human), UniProt Q13467 27-233, limits assumed).
T4 construct: also called recombinant FZD5 Fc protein; not shown: Fc part, not described
T4 sequence: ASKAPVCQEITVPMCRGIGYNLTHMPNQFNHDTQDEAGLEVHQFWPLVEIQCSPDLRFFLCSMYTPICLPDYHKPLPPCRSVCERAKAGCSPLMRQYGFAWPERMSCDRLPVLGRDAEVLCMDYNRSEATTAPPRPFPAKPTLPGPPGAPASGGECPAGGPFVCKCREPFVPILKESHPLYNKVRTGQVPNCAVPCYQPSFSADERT
The assay can be described thus: SPR, Biacore 2000; Fzd Fc immobilized on CM5 chip, IgG 100 to 0.78 nM in solution. The protocol: (§3) The KDs of 18R8 and 18R5 antibodies were determined using the Biacore 2000 system from Biacore Lifescience (GE Healthcare). Specifically, purified anti-Fzd7 antibodies were serially diluted in 2-fold increments from 100 to 0.78 nM in HBS-P (0.01 M HEPES pH 7.4, 0.15 M NaCl, 0.005% v/v Surfactant P20). Each dilution was tested against recombinant Fzd Fc proteins immobilized onto a CM5 Biacore chip. The association and dissociation rates were measured and KD values determined using the Biaevaluation software program (Table 5, below).

Assay [5] addresses T5, recombinant FZD2 Fc protein (Biacore) (Homo sapiens (Human), UniProt Q14332 24-250, limits assumed).
T5 construct: also called Fzd Fc; not shown: Fc part, not described
The assay is described as above. The protocol: as §3

In assay [6] the target is T6, recombinant FZD7 Fc protein (Biacore) (Homo sapiens (Human), UniProt O75084 33-255, limits assumed).
T6 construct: also called Fzd Fc; not shown: Fc part, not described
Described as above. As for the experimental part:
as §3

Assay [7] deals with T7, recombinant FZD1 Fc protein (Biacore) (Homo sapiens (Human), UniProt Q9UP38 70-321, limits assumed).
T7 construct: also called Fzd Fc; not shown: Fc part, not described
Described as above. As for the experimental part:
as §3

For assay [8], the target named is T8, human FZD1 expressed on transfected HEK293 cells (human, UniProt Q9UP38 70-647). As to the kind of experiment: FACS titration (MFI) on HEK293 cells transfected with full-length FZD and GFP. The protocol:
as §1, §2

Assay [9] concerns the target T9, human FZD2 expressed on transfected HEK293 cells (human, UniProt Q14332 24-565).
T9 construct: See note of m11
The assay is described as above. The protocol:
as §1, §2

Assay [10] deals with T10, human FZD7 expressed on transfected HEK293 cells (human, UniProt O75084 33-574).
T10 construct: See note of m11
The assay is described as above. The protocol:
as §1, §2

Assay [11] deals with T8, human FZD1 expressed on transfected …. As to the kind of experiment: flow cytometry (MFI), antibody titration on HEK293 cells overexpressing the FZD. As for the experimental part:
(§4) To measure antibody binding to FZD by flow cytometry HEK293 cells were co-transfected with FZD expression vectors and the transfection marker GFP. Twenty-four to forty-eight hours post-transfection, cells were collected in suspension and incubated on ice with anti-FZD antibodies (10 μg/ml unless otherwise indicated) or control IgG to detect background antibody binding. The cells were washed and primary antibodies detected with Fc domain-specific secondary antibodies conjugated to a fluorescent chromophore (e.g. phycoerythrin conjugated anti-human IgG). Labeled cells were then analyzed by flow cytometry to identify anti-FZD antibodies that specifically recognize cell surface expression of FZD protein. Monoclonal antibodies 18R5 and 18R8 recognized FZD on transfected cells. As shown in FIG. 1 and FIG. 2, both 18R8 and 18R5 bind to multiple FZD including FZD1, FZD2, FZD5, FZD7, and FZD8. To examine the relative ability of 18R8 and 18R5 to bind to each FZD protein, titration analysis was conducted wherein the amount of antibody in the binding reaction was varied (FIG. 2).
For orientation: In flow cytometry, cells or beads pass a laser one at a time.

Assay [12] has as its target T9, human FZD2 expressed on transfected …. The assay is described as above. The protocol: as §4

Changes are numbered by the printed parent chain.

T9 sequence (Q14332 24-565 limits assumed): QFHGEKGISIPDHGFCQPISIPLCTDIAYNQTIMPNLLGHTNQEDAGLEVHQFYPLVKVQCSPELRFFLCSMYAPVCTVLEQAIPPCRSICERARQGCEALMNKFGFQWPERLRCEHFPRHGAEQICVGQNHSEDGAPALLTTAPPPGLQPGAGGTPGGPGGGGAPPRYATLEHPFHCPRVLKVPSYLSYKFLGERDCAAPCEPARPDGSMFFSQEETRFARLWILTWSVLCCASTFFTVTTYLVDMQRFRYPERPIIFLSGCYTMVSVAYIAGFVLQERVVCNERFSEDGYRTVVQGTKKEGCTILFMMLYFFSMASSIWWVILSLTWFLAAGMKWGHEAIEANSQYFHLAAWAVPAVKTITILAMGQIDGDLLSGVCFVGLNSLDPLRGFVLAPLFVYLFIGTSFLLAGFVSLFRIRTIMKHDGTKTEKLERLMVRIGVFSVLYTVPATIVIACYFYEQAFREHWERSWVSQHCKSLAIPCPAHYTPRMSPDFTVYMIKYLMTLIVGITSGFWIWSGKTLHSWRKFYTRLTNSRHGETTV
T8 sequence (Q9UP38 70-647 limits assumed): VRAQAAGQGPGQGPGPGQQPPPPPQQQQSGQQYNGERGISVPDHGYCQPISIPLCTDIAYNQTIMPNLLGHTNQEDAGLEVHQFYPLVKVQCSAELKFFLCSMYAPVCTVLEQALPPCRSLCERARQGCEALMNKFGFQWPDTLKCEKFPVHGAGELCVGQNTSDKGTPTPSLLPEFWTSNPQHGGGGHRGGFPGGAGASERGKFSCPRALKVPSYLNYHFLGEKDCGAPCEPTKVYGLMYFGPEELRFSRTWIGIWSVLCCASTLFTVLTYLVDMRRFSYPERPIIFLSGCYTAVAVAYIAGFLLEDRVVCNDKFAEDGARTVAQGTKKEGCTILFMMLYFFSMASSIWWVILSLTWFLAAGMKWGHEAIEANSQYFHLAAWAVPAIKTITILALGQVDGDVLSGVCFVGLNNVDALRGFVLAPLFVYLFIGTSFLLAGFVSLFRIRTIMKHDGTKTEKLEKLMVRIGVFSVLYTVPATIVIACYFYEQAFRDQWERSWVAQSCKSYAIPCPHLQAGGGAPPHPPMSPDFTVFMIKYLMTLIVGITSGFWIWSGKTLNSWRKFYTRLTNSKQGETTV
T7 sequence (Q9UP38 70-321 limits assumed): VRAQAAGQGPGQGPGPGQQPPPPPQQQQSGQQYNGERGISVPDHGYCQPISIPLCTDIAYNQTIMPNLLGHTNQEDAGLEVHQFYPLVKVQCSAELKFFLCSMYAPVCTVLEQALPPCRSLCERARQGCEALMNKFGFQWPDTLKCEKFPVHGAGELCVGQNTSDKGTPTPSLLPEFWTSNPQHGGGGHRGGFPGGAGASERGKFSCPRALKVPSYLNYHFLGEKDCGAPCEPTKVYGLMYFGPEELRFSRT
T5 sequence (Q14332 24-250 limits assumed): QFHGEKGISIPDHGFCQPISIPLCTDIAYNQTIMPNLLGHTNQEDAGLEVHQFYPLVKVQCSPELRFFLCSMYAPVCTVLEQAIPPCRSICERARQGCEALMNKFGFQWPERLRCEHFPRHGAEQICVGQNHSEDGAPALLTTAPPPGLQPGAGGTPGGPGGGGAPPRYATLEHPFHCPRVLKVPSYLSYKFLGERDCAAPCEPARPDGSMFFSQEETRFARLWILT

B1: FZD binding peptide clone #2 (DTLSALIERGLM) (peptide)
peptide: DTLSALIERGLM
notes: Linear 12-mer from the Ph.D. phage display peptide library
As for B1, the binding result in [1] is reported as “binds”; in assay [2] it was “no binding”.

B2: 44R24 anti-FZD IgG antibody (antibody, V domains shown)
VH: EVQLVESGGGLVQPGGSLRLSCAASGFTFSSYYITWVRQAPGKGLEWVSTISYSSSNTYYADSVKGRFTISRDNSKNTLYLQMNSLRAEDTAVYYCARSIVFDYWGQGTLVTVSS
VL: DIELTQPPSVSVAPGQTARISCSGDALGNRYVYWYQQKPGQAPVLVIPSGIPERFSGSNSGNTATLTISGTQAEDEADYYCGSWDTRPYPKYVFGGGTKLTVLG
notes: also called anti-FZD5/8 44R24
One may read the EC50 as the midpoint of the concentration-response curve. In [3], B2 returned an EC50 of 1.89 nM.

B3: clone 28 (peptide)
peptide: DVWWLGSTWLKR
notes: marked with an arrow
B3: in assay [2], the binding result is recorded as “no binding”.

B4: 18R5 IgG antibody (human IgG2, lambda) (antibody, V domains shown)
VH: EVQLVESGGGLVQPGGSLRLSCAASGFTFSHYTLSWVRQAPGKGLEWVSVISGDGSYTYYADSVKGRFTISSDNSKNTLYLQMNSLRAEDTAVYYCARNFIKYVFANWGQGTLVTVSS
VL: DIELTQPPSVSVAPGQTARISCSGDNIGSFYVHWYQQKPGQAPVLVIYDKSNRPSGIPERFSGSNSGNTATLTISGTQAEDEADYYCQSYANTLSLVFGGGTKLTVLG
notes: also called OMP-18R5; 18R5 IgG2 antibody
As a reminder, the Kd is the free concentration of one partner at which half of the binding sites on the other are occupied at equilibrium, for simple one-to-one binding. One may read the EC50 (read off the curve) as the concentration that produces a half-maximal response. A low value points to greater potency. As for B4, the dissociation constant (Kd) was found to be 1.9 nM in assay [4], 3.3 nM in [5], 1.8 nM in assay [6] and 4.6 nM in assay [7]. Also, the EC50 in assay [8] is 0.41 nM; in assay [3] it was 1.1 nM; in assay [9] it was 0.62 nM; in [10], 0.58 nM. For the same molecule, the half-maximal effective concentration (EC50 (read off the curve)) in assay [11] and in assay [12] was approximately 0.2 µg/mL each time.

Source of the values: patent publication US20130295106A1 (ONCOMED PHARMACEUTICALS, published 2013).
